# Test results taken from paper PMC3566586 (Molecular Cell, 2010).
# Like-named read-outs stand apart in the source and are kept apart here.
# T1: recombinant Flag-tagged Yox1p(151–274) (S. cerevisiae, UniProt P34161 151-274)
# T1 sequence (looked up): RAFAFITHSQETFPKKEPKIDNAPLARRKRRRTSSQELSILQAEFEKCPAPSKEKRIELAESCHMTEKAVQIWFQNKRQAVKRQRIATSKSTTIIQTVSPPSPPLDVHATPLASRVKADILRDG
# T2: Yox1p(176-274) recombinant (Saccharomyces cerevisiae, UniProt P34161 176-274)
# T2 sequence: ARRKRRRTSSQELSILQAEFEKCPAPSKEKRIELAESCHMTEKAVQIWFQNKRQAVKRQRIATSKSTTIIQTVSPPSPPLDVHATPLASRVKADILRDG
# T3: Yox1p(F155A) (Saccharomyces cerevisiae, UniProt P34161 151-274, F155A)
# T3 sequence: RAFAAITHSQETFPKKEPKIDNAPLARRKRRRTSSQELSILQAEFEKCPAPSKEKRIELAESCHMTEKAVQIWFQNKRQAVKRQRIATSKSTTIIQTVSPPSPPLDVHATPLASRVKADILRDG
# T4: Yox1p F163 mutant (Saccharomyces cerevisiae, UniProt P34161 151-274, F163A)
# T4 sequence: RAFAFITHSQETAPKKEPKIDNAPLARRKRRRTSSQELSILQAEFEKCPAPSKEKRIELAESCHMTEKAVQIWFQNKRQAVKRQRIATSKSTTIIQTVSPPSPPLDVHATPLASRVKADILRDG
# T5: Yox1p(F153A) (Saccharomyces cerevisiae, UniProt P34161 151-274, F153A)
# T5 sequence: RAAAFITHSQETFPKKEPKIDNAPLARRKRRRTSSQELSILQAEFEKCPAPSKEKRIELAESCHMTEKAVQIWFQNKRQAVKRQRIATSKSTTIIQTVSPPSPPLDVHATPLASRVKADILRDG
# T6: Fkh2p(325-458) (Saccharomyces cerevisiae, UniProt P41813 325-458)
# T6 sequence: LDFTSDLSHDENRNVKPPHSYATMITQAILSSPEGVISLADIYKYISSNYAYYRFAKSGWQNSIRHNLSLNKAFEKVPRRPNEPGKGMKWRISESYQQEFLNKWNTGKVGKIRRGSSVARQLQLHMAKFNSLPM
# T7: Yox1p(151-274) recombinant (Saccharomyces cerevisiae, UniProt P34161 151-274)
# T7 sequence: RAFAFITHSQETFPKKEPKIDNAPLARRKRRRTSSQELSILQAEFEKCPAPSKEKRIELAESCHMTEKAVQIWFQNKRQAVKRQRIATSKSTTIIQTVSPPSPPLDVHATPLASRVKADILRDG
# How the values were obtained:
# [1] = target: T1, recombinant Flag-tagged Yox1p(151–274); assay: pull-down
# [2] = target: Mcm1p(1-98);Yox1p full length (Saccharomyces cerevisiae;Saccharomyces …, UniProt P11746;P34161 1-98;1-385, |); assay: immobilized template pull-down
# [3] = target: Mcm1p(1-98);Yox1p(N226Q) recombinant (Saccharomyces cerevisiae;Saccharomyces …, UniProt P11746;P34161 1-98;151-274, |N226Q); assay: competition
# [4] = target: T2, Yox1p(176-274) recombinant; assay: EMSA
# Yox1p(F155A) = target: T3, Yox1p(F155A); assay: EMSA
# Yox1p F163 mutant = target: T4, Yox1p F163 mutant; assay: EMSA
# Yox1p(F153A) = target: T5, Yox1p(F153A); assay: EMSA
# [5] = target: Mcm1p(1-98);Yox1p(151-274) (Saccharomyces cerevisiae;Saccharomyces …, UniProt P11746;P34161 1-98;151-274, |); assay: EMSA
# Fkh2p(325-458) = target: T6, Fkh2p(325-458); assay: EMSA
# [6] = target: T7, Yox1p(151-274) recombinant; assay: EMSA
# [7] = target: Mcm1p(1-98);Yox1p(151-274) recombinant (Saccharomyces cerevisiae;Saccharomyces …, UniProt P11746;P34161 1-98;151-274, |); assay: EMSA
# Mcm1p(1-98) [8] = target: T8, Mcm1p(1-98) (Saccharomyces cerevisiae, UniProt P11746 1-98); assay: EMSA
# Mcm1p(1-98);Fkh2p(1-458) [9] = target: T9, Mcm1p(1-98);Fkh2p(1-458) (Saccharomyces cerevisiae;Saccharomyces …, UniProt P11746;P41813 1-98;1-458, |); assay: EMSA
# Mcm1p(1-98);Yox1p(E196H) = Mcm1p(1-98);Yox1p(E196H) (Saccharomyces cerevisiae;Saccharomyces …, UniProt P11746;P34161 1-98;151-274, |E196H); assay: EMSA
# [10] = target: Mcm1p(1-96);Fkh2p full length (Saccharomyces cerevisiae;Saccharomyces …, UniProt P11746;P41813 1-96;1-862, |); assay: EMSA
# [11] = target: Mcm1p(1-96);Yox1p(151-274) recombinant (Saccharomyces cerevisiae;Saccharomyces …, UniProt P11746;P34161 1-96;151-274, |); assay: competition
# [12] = target: Mcm1p(1-96);Yox1p(151-274) recombinant;Fkh2p(325-458) (Saccharomyces cerevisiae;Saccharomyces …, UniProt P11746;P34161;P41813 1-96;151-274;325-458, ||); assay: EMSA
# Mcm1p(1-98);Fkh2p(1-458) [13] = target: T9, Mcm1p(1-98);Fkh2p(1-458); assay: EMSA; remark: listed apart in the source
# Mcm1p(1-98) [14] = target: T8, Mcm1p(1-98); assay: EMSA; remark: listed apart in the source
# Mcm1p(1-98);Yox1p full length, sequence (P34161 whole entry, one chain of several): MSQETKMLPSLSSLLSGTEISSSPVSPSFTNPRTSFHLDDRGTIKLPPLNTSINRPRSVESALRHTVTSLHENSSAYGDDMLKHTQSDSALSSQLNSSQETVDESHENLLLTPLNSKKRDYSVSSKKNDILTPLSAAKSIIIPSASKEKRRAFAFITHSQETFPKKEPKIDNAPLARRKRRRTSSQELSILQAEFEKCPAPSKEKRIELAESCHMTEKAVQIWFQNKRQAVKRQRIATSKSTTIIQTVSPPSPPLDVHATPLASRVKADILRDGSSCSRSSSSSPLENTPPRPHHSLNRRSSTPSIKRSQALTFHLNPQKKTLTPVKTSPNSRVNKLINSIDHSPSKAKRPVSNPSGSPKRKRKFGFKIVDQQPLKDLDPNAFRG
# Mcm1p(1-96);Fkh2p full length, sequence (P41813 whole entry, one chain of several): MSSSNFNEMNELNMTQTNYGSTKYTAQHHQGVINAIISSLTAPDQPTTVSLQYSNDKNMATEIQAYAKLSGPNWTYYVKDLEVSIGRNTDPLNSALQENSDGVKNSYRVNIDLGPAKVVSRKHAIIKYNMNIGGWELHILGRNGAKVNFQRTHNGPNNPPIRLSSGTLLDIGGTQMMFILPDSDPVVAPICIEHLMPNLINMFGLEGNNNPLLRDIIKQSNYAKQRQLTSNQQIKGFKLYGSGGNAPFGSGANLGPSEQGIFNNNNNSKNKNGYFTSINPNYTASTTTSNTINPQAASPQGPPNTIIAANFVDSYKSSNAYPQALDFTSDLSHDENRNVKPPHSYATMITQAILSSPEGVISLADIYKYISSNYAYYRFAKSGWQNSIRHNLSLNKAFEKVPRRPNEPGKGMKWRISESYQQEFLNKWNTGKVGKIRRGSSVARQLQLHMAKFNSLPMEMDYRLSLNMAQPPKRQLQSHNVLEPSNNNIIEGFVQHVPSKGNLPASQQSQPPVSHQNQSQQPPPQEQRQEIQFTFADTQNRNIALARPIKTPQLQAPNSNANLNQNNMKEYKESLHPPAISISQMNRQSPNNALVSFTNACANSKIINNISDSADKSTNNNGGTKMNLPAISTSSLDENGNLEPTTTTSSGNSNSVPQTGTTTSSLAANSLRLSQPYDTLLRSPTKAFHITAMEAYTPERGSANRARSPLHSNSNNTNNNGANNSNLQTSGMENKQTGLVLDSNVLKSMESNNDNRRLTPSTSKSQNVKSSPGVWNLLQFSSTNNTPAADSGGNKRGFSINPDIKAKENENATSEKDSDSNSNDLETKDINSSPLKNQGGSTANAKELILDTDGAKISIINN
binder,measurement,setting,value
"MBP-Mcm1p(1–96) (domain or fragment, S. cerevisiae, UniProt P11746 1-96, looked up) MSDIEEGTPTNNGQQKERRKIEIKFIENKTRRHVTFSKRKHGIMKKAFELSVLTGTQVLLLVVSETGLVYTFSTPKFEPIVTQQEGRNLIQACLNA",binding result,[1],binds
SPO12 WT biotin (dsDNA) DNA 1: TCGAGGTTAATATCTTTTCCTAATTTGGAAATATGTAAACAGGGC DNA 2: TCGAGCCCTGTTTACATATTTCCAAATTAGGAAAAGATATTAACC,binding result,[2],binds
SPO12 WT (dsDNA) DNA 1: TCGAGGTTAATATCTTTTCCTAATTTGGAAATATGTAAACAGGGC DNA 2: TCGAGCCCTGTTTACATATTTCCAAATTAGGAAAAGATATTAACC,binding result,[3],no binding
same,binding result,[4],binds
same,binding result,Yox1p(F155A),binds
same,binding result,Yox1p F163 mutant,binds
same,binding result,Yox1p(F153A),binds
same,binding result,[5],binds
same,binding result,Fkh2p(325-458),binds
same,binding result,[6],binds
same,binding result,[7],binds
same,binding result,Mcm1p(1-98) [8],binds
same,binding result,Mcm1p(1-98);Fkh2p(1-458) [9],binds
same,binding result,Mcm1p(1-98);Yox1p(E196H),binds
same,binding result,[10],binds
same,binding result,[11],binds
same,binding result,[12],binds
SPO12 mut (Yox1p site) (dsDNA) DNA 1: TCGAGGTTAGGATCTTTTCCTAATTTGGAAATATGTAAACAGGGC DNA 2: TCGAGCCCTGTTTACATATTTCCAAATTAGGAAAAGATCCTAACC,binding result,Mcm1p(1-98);Fkh2p(1-458) [13],binds
same,binding result,Mcm1p(1-98) [14],binds
